No end group written: not given here.
Assays:
[1] = biological target: T1, ECR293 cells expressing Fpn-GFP (Mus musculus, UniProt Q9JHI9); format: cell-based; settings: for effect of lysosomal inhibitor on degradation of both hepcidin and ferroportin: chloroquine 100 µM or bafilomycin 100 nM for 20 h after 4 h TR-Hep loading, flow cytometry
T1 construct: expressed in transfected cells; host or cells: ECR293 (ECR-Fpn) cells, ponasterone-inducible
T1 sequence (Q9JHI9 1-570): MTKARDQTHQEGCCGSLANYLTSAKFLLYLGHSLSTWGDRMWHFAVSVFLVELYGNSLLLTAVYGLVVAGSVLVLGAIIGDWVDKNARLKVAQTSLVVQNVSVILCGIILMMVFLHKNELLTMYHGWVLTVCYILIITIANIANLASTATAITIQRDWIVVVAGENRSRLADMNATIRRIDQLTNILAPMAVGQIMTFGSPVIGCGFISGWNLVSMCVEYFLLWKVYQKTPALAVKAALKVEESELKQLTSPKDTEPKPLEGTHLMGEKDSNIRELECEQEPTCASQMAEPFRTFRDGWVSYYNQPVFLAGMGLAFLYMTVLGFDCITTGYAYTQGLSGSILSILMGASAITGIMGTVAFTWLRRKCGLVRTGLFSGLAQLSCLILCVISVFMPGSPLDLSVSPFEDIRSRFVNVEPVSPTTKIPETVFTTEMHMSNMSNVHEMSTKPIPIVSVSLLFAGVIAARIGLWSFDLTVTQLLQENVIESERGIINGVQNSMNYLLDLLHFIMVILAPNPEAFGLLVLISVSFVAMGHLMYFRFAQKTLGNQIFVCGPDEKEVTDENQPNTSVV
Method: ECR-Fpn cells were plated on poly-D-lysine-coated plates in the presence of 20 µM FAC, with or without 10 µM ponasterone. After 24 h, ponasterone was washed off, and cells were loaded with 1 µg/ml TR-Hep for 4 h. After 4 h, cells were washed with PBS, fresh media was added and cells were treated with or without lysosomal inhibitors chloroquine (100 µM) and bafilomycin (100 nM). Twenty hours after the addition of inhibitors, cells were trypsinized and resuspended at 1×10^6 cells/ml, and the intensity of red and green fluorescence was analyzed by flow cytometry at UCLA Jonsson Comprehensive Cancer Center and Center for AIDS Research Flow Cytometry Core Facility (supported by NIH awards CA-16 042 and AI-28 697, the UCLA AIDS institute, and the UCLA School of Medicine). Flow cytometry was performed on FACSVantage SE sorting flow cytometer with digital electronics (Becton Dickinson, San Jose, CA) and analyzed with FACSDiva software (Becton Dickinson). Cells not induced with ponasterone were used to establish a gate to exclude background fluorescence. Loss of cellular Fpn-GFP was quantified as % of green fluorescence in induced cells not treated with hepcidin. Degradation of cellular TR-Hep was measured as % of red fluorescence in induced cells treated with TR-Hep for 4 h.

[2] = biological target: T1, ECR293 cells expressing Fpn-GFP; format: cell-based
Method: ECR-Fpn cells were plated on poly-D-lysine coated plates in the presence of 20 µM FAC, with or without 10 µM ponasterone, and incubated at 37°C. After 24 h, cells were washed with PBS and 1 ml of serum free media was added. The cells were treated with 5×10^5 cpm of ^125I–hepcidin for 2 h (loading period) at 37°C. After 2 h the cells were washed 3 times with DMEM/10% fetal bovine serum to remove unbound ^125I-hepcidin and 1 ml serum-free media with 20 µM FAC was added to all wells. Cells were incubated at 37°C for 5 min, 4, 8 and 24 h after loading. To prevent lysosomal acidification and proteolysis, 100 nM bafilomycin was added to assigned wells for 24 h. The supernatant was collected, its radioactivity quantified by a gamma counter, and an aliquot subjected to HPLC analysis. The cells were washed once and centrifuged for 2 min at 12,000xg through a silicone oil layer (Nyosil M25, Nye, Fairhaven, MA). The radioactivity in cell pellets was determined by gamma counting (Beckman, Fullerton, CA).
Aliquots of the supernatants were analyzed by reversed-phase high-performance liquid chromatography (RP-HPLC) on Vydac C18 column (218TP54; Waters). Fractions were eluted over 30 minutes with an acetonitrile gradient (1 fraction per minute) and their radioactivity determined by gamma counting.

Fpn-GFP expressing cells = biological target: T2, Fpn-GFP expressing cells (Mus musculus, UniProt Q9JHI9); test: Confocal microscopy co-localization of TR-Hep with Fpn-GFP; format: cell-based
T2 construct: expressed in transfected cells; host or cells: ECR293 (ECR-Fpn) cells, ponasterone-inducible
T2 sequence (Q9JHI9 1-570): T1 sequence (Q9JHI9 1-570)
Method: ECR-Fpn cells were plated in a 12-well plate on 12 mm poly-D-lysine coated round coverslips (Becton Dickinson, Franklin Lakes, NJ) in the presence of 20 µM ferric ammonium citrate (FAC) with or without 10 µM ponasterone. FAC is added to the medium to prevent cellular iron depletion caused by prolonged Fpn-GFP overexpression. After 24 h, ponasterone was washed off, and cells were treated with 1 µg/ml TR-Hep at 37°C protected from light. After 1 hour, cells were washed with PBS two times and the coverslip was placed on a slide, sealed with clear nail polish and immediately analyzed. Images were scanned at the UCLA CNSI Advanced Light Microscopy Facility and the BRI Cell Imaging Facility on a Leica TCS-SP MP Confocal and Multiphoton Inverted Microscope (Heidelberg, Germany) equipped with an argon laser (488 nm blue excitation: JDS Uniphase), a 561 nm (green) diode laser (DPSS: Melles Griot), and a two photon laser setup consisting of a Spectra-Physics Millenia×532 nm green diode pump laser and a Tsunami Ti-Sapphire picosecond pulsed infrared laser tuned at 768 nm for UV excitation. Images were acquired using LCS Lite software (Leica Confocal Software, Leica Microsystems, Manheim, Germany).

[3] = biological target: T3, Fpn-GFP expressing ECR293 cells (ferroportin) (Mus musculus, UniProt Q9JHI9); test: Temperature and pH dependent 125I-hepcidin binding/internalization assay; format: cell-based
T3 construct: expressed in transfected cells; host or cells: ECR293 (ECR-Fpn) cells, ponasterone-inducible
T3 sequence (Q9JHI9 1-570): T1 sequence (Q9JHI9 1-570)
Method: ^125I-hepcidin (10^6 cpm, specific activity ∼10^7 cpm/µg) was added to ECR-Fpn cells plated on poly-D-lysine coated plates in the presence of 20 µM FAC, with or without 10 µM ponasterone. Cells were incubated with radiolabeled hepcidin at different temperatures (0, 15, 23 and 37°C) for 1 hour. For pH experiments, growth medium was replaced with media adjusted to pH of 2, 4, 5, 6, 7, 8 and 9 (without additional FAC) and radiolabeled hepcidin was added for 1 h at 37°C. Cells were washed with phosphate-buffered saline (PBS) to remove unbound radioactive hepcidin and centrifuged for 2 minutes at 12,000xg through a silicone oil layer (Nyosil M25; Nye). The radioactivity in cell pellets was determined by gamma counting. The temperature-dependence data are expressed in counts-per-minute (cpm), whereas pH-dependence data were normalized because of the variability in absolute cpm values between experiments and expressed as % of radioactivity at pH 7. The radioactivity of uninduced cells subtracted as background for each point.

ferroportin = settings: naturally occurring urinary forms; cited from earlier work
[4] = cited from earlier work
From the text: This study was the first to examine the fate of hepcidin from its initial binding to ferroportin to its cellular catabolism. We show here that hepcidin is internalized together with ferroportin and that both are degraded in lysosomes. Because of the small size of hepcidin (∼2.7 kD) and its weak binding to plasma proteins, glomerular filtration and proteolysis in proximal tubules is thought to be the major mechanism for hepcidin clearance from blood. Detectable concentrations of hepcidin in urine, indicative of peptide that escaped proteolysis in the proximal tubules, are consiste ...

CO/C1=C\C(C)=C\[C@@H](C)[C@@H](O)[C@@H](C)C/C(C)=C/C=C/[C@H](OC)[C@@H]([C@@H](C)[C@@H](O)[C@H](C)[C@@]2(O)C[C@@H](O)[C@H](C)[C@@H](C(C)C)O2)OC1=O [bafilomycin, reference compound]
effect of lysosomal inhibitor on degradation of both hepcidin and ferroportin [1]: completely prevented the degradation
effect of bafilomycin on cellular radioactivity ([2]; 100 nM bafilomycin for 24 h after 125I-hepcidin loading, gamma counting of cell pellets): increased the retention of radioactivity in cells

TR-Hep: synthetic hepcidin labeled with Texas Red-X succinimidyl ester
co-localization of red hepcidin with green ferroportin in vesicles (Fpn-GFP expressing cells; 1 µg/ml TR-Hep, 1 h, 37°C, induced cells, confocal microscopy): nearly complete co-localization
red fluorescence in uninduced cells (Fpn-GFP expressing cells; uninduced cells treated with TR hepcidin, data not shown): no detectable red fluorescence
degradation of Fpn-GFP after TR-Hep ([1]; 24 h after addition of 1 µg/ml TR-Hep, green fluorescence by flow cytometry): nearly completely degraded

CCN(CC)CCCC(C)Nc1ccnc2cc(Cl)ccc12 (stereo not drawn) [chloroquine]
effect of lysosomal inhibitor on degradation of both hepcidin and ferroportin [1]: completely prevented the degradation

^125I-hepcidin: synthetic hepcidin with M21Y substitution iodinated with 125I (DTHFPICIFCCGCCHRSKCGYCCKT; disulfide (positions not given here); not fully specified (bridges); ends not checked; also: iodinated with 125I, site not given here; UniProt P81172 60-84, looked up, variant M21Y)
binding of 125I-hepcidin to Fpn-GFP expressing cells at temperatures below 37°C ([3]; 1 h at 0, 15, 23 and 37°C, cell-bound radioactivity by gamma counting (cpm), at least three experiments): decreased
radioactivity in cell pellets after loading [2]: almost complete loss of radioactivity

hepcidin-20: degradation product of hepcidin-25 detected in urine, truncated at the N-terminus by 5 amino acids (ICIFCCGCCHRSKCGMCCKT; disulfide (positions not given here); ends not checked; also: disulfide bridges, pairing not given here; UniProt P81172 65-84, looked up)
activity relative to hepcidin-25 (ferroportin): much less active than hepcidin-25

Hepcidin: 25-amino acid peptide hormone, principal regulator of plasma iron concentrations; synthetic hepcidin from Peptides International
specific binding at pH lower than 6 ([3]; pH 2, 4, 5, 1 h at 37°C, uninduced-cell background subtracted): did not bind specifically
binding to ferroportin at pH 9 ([3]; pH 9 among pH 2, 4, 5, 6, 7, 8 and 9, 1 h at 37°C, normalized to pH 7): highest binding
binding to plasma proteins [4]: weak binding

Reference: PMC3594189, “Cellular Catabolism of the Iron-Regulatory Peptide Hormone Hepcidin” (PLoS ONE, 2013)
